Drawing on a protein production outcome set (Wang et al. 2014), this text covers protein production for 26 sequences.

A short description of this data set: label from the status in PepcDB records.
On to “AHTKISPLGIDTLCFKVSTNPGQPLQPIAKVASGGELSRISLAIQVITAQKVDTPSLIFDEVDVGISGPTAAVVGKMLRTLGESTQVLCVTHLPQVAGCGHNQLFVAKHTKSGKTETQMRALNLEERVEELARLLGGTQITAHTLANAKELLNAA”, for which the protein production entry is given as “failed”.
“MACGKGHDIMEVASPYGWKKNPQKVLDFYNQRRRQLFEVYPNKAHKALAELEKHYQVNIITQNVDDLHERAGSSRILHLHGELLSVRSEKDPNLVYRWEKDLNLGDLAKDKSQLRPDIVWFGEAVPLLKEAISLVKQAHLLIIIGTSLQVYPAASLYTHAHKDALIYYIDPKAKNAHLPQNVQCINESAVHAMQDLMPKLIEMAS”: the protein production entry is listed as “failed”.
As for “MTDIPAPAPAAEFWEARYRDTGRVWSGRPNELLVQEAGGLAPGTALDLGCGEGADAVWLASRGWRVTGVDISATALERAAGHADGAGVGDRVLWERHELGPSFPEGSFDLVSAHYLQSPVALDQQAVLRAAARAVAPGGTLLVVMHAGWPSWQTEPPFDAAFPTLDGVLAELALPEGEWSVETRRTARRPSVAPDGTEGFREDHVWRLKRAVFVE”, the entry is “failed”; as for “MSALDIPVTPENYTVWYEYFAQSNLDLNRAIDGFLANNVVFTKEVNTSLYKNFIQEKSPEVIENVQIETQILINSLISKITQLNQGTEAFSNTLADFGLQLQSSPDVNTLNQLVDGVIDEMQNLLVNNQTMEQSLNAMGQEVQNLKTEMENLSLAAMTDQLTSLHNRRAYEIAIQDHIHRAEEQHTRCSLLLIDIDRFKVFNDTYGHQVGDKVLAYVALALKQCVRGDDFVARYGGEEFVVLLPNTHFHDALQVAETLRGRISERRLAIGKDKKLSLGAITVSIGLASLQKGDDAETLFSRADKALYEAKSDGRNCVRG”, “failed”.
“MVTAGKTLGKRMSTMRHRSCFSLFAGLALVFCLAVGTAAAGPVQVDIYGPGQGSLNLAMAAPLGPTPGTPVSGMGVKLNGFINENLSFLPFLRLVDQRAILGGTVMQGYKSPDIDLKRFQLAGADLVVTAGWPQGDASGSFVELRVYEALSGKLVFGKAYSHVEDGLLPNVADRFCSDLMKALTGRGEFFKSTLAFVKHDGKNKRDVWLVKPVGRDLRKITNLPGEALSPSWSPDGRFVVFSHFDDRSHALGVWDRLTRQVQRIRFPGNTVIGPCFLPDNKVAVSLSSGRNPDIFLLNHLFKKERELEANPSINVSPSFDATGTKMAFTSSRMGGPQVFMKDMTTGQVTRISKTGSYNTEPSISPDGTLVAFTKMTDTGHRIFVYDMVTQSERQVSFGPGRDEQPSFAPDSYFLAFTSNRNGAQQIFLVTRHGGDPKRVPTGPGDASFARWGMIPE”: the protein production result is “failed”.
For the sequence “MRVKICGITRLEDALLAEALGAFALGFVLAPGSRRRIAPEAARAIGEALGPFVVRVGVFRDQPPEEVLRLMEEARLQVAQLHGEEPPEWAEAVGRFYPVIKAFPLEGPARPEWADYPAQALLLDGKRPGSGEAYPRAWAKPLLATGRRVILAGGIAPENLEEVLALRPYALDLASGVEEAPGVKSAEKLRALFARLASLRMEG”, the protein production entry is recorded as “not failed”.
Consider “ISPGAAGGAEDGFFVPPTKGTSPTQIWCNNSQLPVDHILAGSFETAMRLLHDQVGVIQFGPYKQLFLQTYARGRTTYQALPCLPSMYGYPNRNWKDAGLKNGVPAVGLKLNDLIQRLQLCYQLTTVGKFEEAVEKFRSILLSVPLLVVDNKQEIAEAQQLITICREYIVGLSVETERKKLPKETLEQQKRICEMAAYFTHSNLQPVHMILVLRTALNLFFKLKNFKTAATFARRLLELGPKPEVAQQTRKILSACEKNPTDAYQLNYDMHNPFDICAASYRPIYRGKPVEKCPLSGACYSPEFKGQICRVTTVTEIGKDVIGLRISPLQFR”, for which the protein production result is on record as “failed”.
Regarding “MPTKTYSEEFKRDAVALYENSDGASLQQIANDLGINRVTLKNWIIKYGSNHNVQGTTPSAAVSEAEQIRQLKKENALQRARTRHPAESCLEHHHHHH”, the protein production entry is on record as “not failed”.
In the case of “MTPQRATLTGMLAIILWSTSVGLIRSLTEALGPIGGAAMIYSTSTLCLLVFYGLPRIKTLPRIYLFAGGALFVCYEIFLSLSIGLADSRMQAMEIGMINYLWPSLTILFSLFINQQKSRFLLWPGLVISLGGIVWIMKGESDWTPELLWNNILANPLAYSLAFSAALTWALYCNITKRYGQGKSGVSLFFFIASLVLWIQYSFSAEGPISLTLPSSLELLFMGASAALAYSAWNAGIQYGNLTLLATASYFTPVLSTLLAAIWLNITPAISFWQGVAMVTAGSLLCWYATRSSTR”, the protein production result is “failed”.
As for “MSICPHIQQVFQNEKSKDGVLKTCNAARYILNHSVPKEKFLNTMKCGTCHEINSGATFMCLQCGFCGCWNHSHFLSHSKQIGHIFGINSNNGLLFCFKCEDYIGNIDLINDAILAKYWDDVCTKTMVPSMERRDGLSGLINMGSTCFMSSILQCLIHNPYFIRHSMSQIHSNNCKVRSPDKCFSCALDKIVHELYGALNTKQASSSSTSTNRQTGFIYLLTCAWKINQNLAGYSQQDAHEFWQFIINQIHQSYVLDLPNAKEVSRANNKQCECIVHTVFEGSLESSIVCPGCQNNSKTTIDPFLDLSLDIKDKKKLYECLDSFHKKEQLKDFNYHCGECNSTQDAIKQLGIHKLPSVLVLQLKRFEHLLNGSNRKLDDFIEFPTYLNMKNYCSTKEKDKHSENGKVPDIIYELIGIVSHKGTVNEGHYIAFCKISGGQWFKFNDSMVSSISQEEVLKEQAYLLFYTIRQVN”, the protein production result is given as “failed”.
Take “MSANDKQYISYNNVHQLCQVSAERIKNFKPDLIIAIGGGGFIPARILRTFLKEPGVPTIRIFAIILSLYEDLNSVGSEVEEVGVKVSRTQWIDYEQCKLDLVGKNVLIVDEVDDTRTTLHYALSELEKDAAEQAKAKGIDTEKSPEMKTNFGIFVLHDKQKPKKADLPAEMLNDKNRYFAAKTVPDKWYAYPWESTDIVFHTRMAIEQGNDIFIPEQEHKQ”: the protein production entry is “failed”.
“MICTPKVGLNNQLTKVQFFMTKYNFLFKQQVIEFYLQNDKNSSLTRRHFQLAETTLERWINQFNHSGINGLALLGKKRNYSPEFKLNVIQAVKNGKFSAEAACLHFGIANSGVVSQWLQAFEKQGINGLIPKPKGRPTMKLQYPKMPPKPKTREEELELENLRLRAENAILKKLQELNQQKMQKKPLSLEHHHHHH”: the protein production entry was “failed”.
For the sequence “MFGLGGEAMIKTQVVKLKVNKTMQKHLDALCDYRRYCWNKGLETWQLMYEAHTLTTKDNPSPNERRVRDELVAGKADWQYDLSARCLQLAIKDLANAWKNFLDKAQPDWGKPRFKSKKAPRQGFKTDRAEIVNGKLRLDKPWSIAKDNWFDLASYEALKMRKVKIASIFKEKGLYYAALTYEENIPAKAKTHKKTAIDVNVGHFNYTDGLINVLPVRLQKLYKRIKHYQRMLARKREINGKLATKTNNYLAVRAKLQRDYRKVVNIQNDLLQKFTTRLVNDYDQIVIEDLAVKEMMMTHVASKGMQRSLFGKFRQILTYKCDWYNKELILASKMYPSTQRCAKCGYVKKGDEKITLQGNQKHGTKHNEYICYRCGYTNDRDENAVLNLLALAK”, the protein production result is on record as “failed”.
In the case of “MDQLYQLAQAMIHNDLAVLSNPNVTLMVSGVILCFLVMENGFIPTAFLPGDTLLILTGVLIYQDVLHMGIVPLLMVATFIGTAIGYLQGYFLGHTQMYHRLLSHIDDKHQKKALYLIDKYGILTLLVARYIPFVRTIYPYIIGATGVSWSRFLVINFISSVMWITPLVGFGYVISHSKLANEYQTQFMSIIVYLPIVLLVSGIVTLIYKWLRKKKKL”, the protein production result is given as “failed”.
The same measure for “SGILFMSKVGLRGDRRSEGDEVLDPLRQALDSSMQSHNLYQHPQHLAFHVSAPVASTVQQASGLLGPLPHLSSFALQPAHSLLPPLGSHGAGFQENGAKAES”: “not failed”; for “MNITGIIAEYNPMHNGHIHHLEKTKEICKSDVILCVMSGDFVQRGEPAIIDKWSRAYAALSSGVDLVIELP”: “failed”; for “MSADGSEYGRYFEQLQKVNLTVRLGDTGSFDGTAAITSLKGSLAWLELFGAEQPPPNTLSEGAEVSVSVWTGGALCRCDGRVETLRDDRQFAIRLVGRVRELQRREYF”: “not failed”.
For “MNPEVTVLMSVYNDKNYLSESIESILNQTFENFEFLIINDASTDGSGELLEEYSKKDKRIRLIHNKNNRGLSYSLAEGVSLAKAPWIARMDADDVSFKDRLAVQMDHVKAHSELDILGSYVIDIDDKGNELEIRKVPTTHKEIANLIWTCPFIHPTVLFKKDSIIKAGSYDRNLRRRQDYDLWFRCLEAKLKFENIDKPLLYYRSTDDYYKKNNFKVQVQQAKMGFAGARRVKAKPIAYIGITVAFIKGILPYHIRKPLSQLLKKVDPRRALEHHHHHH”, the protein production result is given as “not failed”.
Take “MTSSRVNSLIVGGFVLILLGGIIAAATILAGKTGSTDTYFTSYDNVTGIKYGTQVLYEGYRIGQVDEIIPEQRAEGTSFRLRLAVQKGWRIPEGSQTTIATSGLLSAVAINIRGGTAEASLTPGSEIPGGASGGMFAAINDLASEVGTLSRDGLEPLVAKLNAYVDTLGGSLADNLPAILGNARITSEAIARDLPPIIARVDRFTARLDAEVLSQKNIDGLGASIGNISAFSAELNGLGRELRQTGQTLDGMVAGSAPLVDSSLRDLRYTLRALASSIDAITFNMEGASRDMKEFSRSLRQNPGVLLRGSAPAEDGR”: the protein production entry was “failed”.
The same measure for “MPDASAENPWLPLRQLTPARIALGRTGTSLPTRPQLDFQYAHAQARDAVHLPFDHAAISDGLRQRGRDSLLLHSAAADRHVYLQRPDLGRRLDEASVQRLREHAAGYDGQIDLAIVVADGLSALAVQRHTLPFLERLEEQALAEGWSLSPVVLVEQGRVAVADEIGELLRAKMSVILIGERPGLSSPDSLGLYFTWAPRVGLTDAYRNCISNVRLEGLSYGMAAHRLLYLMREACRRQLSGVNLKDEAEVQALDGEAPRTGNFLLAR”: “failed”; for “MLAAGMSRRMGFNKLLAPLCGKRVLWHVLELVARFEGVLEGAVVVTSGEVADVLRRERPPGRRGLFRVVVNREQWRGLSHSIRLGVEASPGARAYLFFNGDRPFVSKHTVARVLALYMARRPLIAAPMAGGAIAPPVVVDSRLRGELLRLSGDTGVRSLFGKYRDSLAVVEVDDPGLHLDVDTPEDLERASKMCSQLGGGPREKPLEHHHHHH”: “failed”; for “PDHKMSDVDTRHVAGLMRINHTGEVCAQALYQGQALTAKLPKVRKAMEHAAEEEIDHLVWCEQRIHQLGSHTSVLNPLFYGLSFGIGAVAGVISDRVSLGFVAATEDQVCKHLGEHLEQLPIEDGKSRAILEQMLSDEEHHAE”: “failed”.
Take “MEKAGMHRTLNYRLRFDIPLVGKDCEYALVQDLPASVYISTDELDDLQRLKRLNAIYPKFVNIEVATERAQPFSVLLRGTPKITESLALPVHFRYHAPSDKRLAATVAIPLPELYLNCPMADSALIENELVARPDKLYCLNAPESRFDENHIKDGQPTTMANLERCNWRRVHVDCQLKMPLRAEIPVGHASAYGPVLCGTILLGWSLALWTIIHSMANTRRINQRLNEQRLLQQKVK”: the protein production result was “failed”.
For the sequence “IVISAFEQTLWRSEPETPLKVYQLLSGAHYRTSPLDLRRMMDAPGQHFLQAAGENEIAGALCLVDEGGLSQELSQAVWAGYRRPRGNLVAQSLAAHGSNPLAATLRGRRVSRIAVHPARQREGTGRQLIAGALQYIHDLDYLSVSFGYTEELWRFWQRCGFVLVRMGNHREASSGCYTAMALLPM”, the protein production result was “failed”.
In the case of “MNNPKPCEWKSNELSRGYIADYKAFNFVDGEGVRCSLYVSGCPFHCEGCYNKAAQSFKYGKPYTKELEDDILKDIGHESVQGLTLLGGEPFLNTATCLSVVKRIRATYGKTKDIWSWTGYTWDEMMQETTDKLELLSLIDVLVDGRFEQKLFDPNLAFRGSSNQRIIDVQKSLAADEVVLYELLEHHHHHH”, the protein production entry was “not failed”.
Regarding “LPAGLYFVGTPIGSARDITLRALDVLASAEVIAAEDTRSLRHLLDIHGVPLDGRRVLAYHDHSGAGAQARLLEALAEGKSVAYASEAGMPLIADPGFELSRAAAEAGHMVTC”, the protein production result is “not failed”.
